Here are results for one protein from article PMC4208085 (FEBS Open Bio, 2014).

This series deals with the molecule itself. Kind of series: crystal structure.

B1: C-terminal soluble domain of STOPP (stomatin operon partner protein) PH1510 from Pyrococcus horikoshii (domain or fragment, UniProt O59179 371-441, looked up)
chain: KARTGKEEMIGLIGTVVEELNPEGMIKVRGELWKARSKFNGKIEKGEKVRVVDMDGLTLIVVRERKEGGEK
For B1, the binding result was “binds”.
